Molecular target: integrin β1 expressed by the β1AGD25 cell line
Test: cell-based or functional assay

CalA-mCherry expressed in S. cerevisiae that co-expresses Candida albicans Als1
endocytosis of S. cerevisiae by β1AGD25 cells (differential fluorescence assay): 3 times

From patent US20180051068A1
